Results published in publication PMC9482650, “Quantitative fragmentomics allow affinity mapping of interactomes” (Nature Communications, 2022).

T1: APBA1_1, Q02410
T1 sequence (Q02410 651-752, limits assumed, looked up): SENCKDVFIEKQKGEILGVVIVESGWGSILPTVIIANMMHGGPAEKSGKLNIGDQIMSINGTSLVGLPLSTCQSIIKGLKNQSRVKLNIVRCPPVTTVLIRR

T2: ARHGEF11, O15085
T2 sequence (O15085 42-136, limits assumed, looked up): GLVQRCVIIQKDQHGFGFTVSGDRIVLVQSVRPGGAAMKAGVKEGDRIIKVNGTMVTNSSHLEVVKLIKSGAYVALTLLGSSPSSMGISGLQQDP

T3: DLG3_2, Q92796
T3 sequence (Q92796 221-321, limits assumed, looked up): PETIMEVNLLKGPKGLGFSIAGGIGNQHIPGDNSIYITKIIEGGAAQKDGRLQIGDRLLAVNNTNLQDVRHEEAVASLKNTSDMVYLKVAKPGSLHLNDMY

T4: FRMPD1, Q5SYB0
T4 sequence (Q5SYB0 52-145, limits assumed, looked up): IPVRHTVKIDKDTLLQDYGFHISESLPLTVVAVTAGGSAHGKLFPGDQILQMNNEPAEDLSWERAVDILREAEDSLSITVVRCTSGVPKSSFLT

T5: HTRA3, P83110
T5 sequence (P83110 354-453, limits assumed, looked up): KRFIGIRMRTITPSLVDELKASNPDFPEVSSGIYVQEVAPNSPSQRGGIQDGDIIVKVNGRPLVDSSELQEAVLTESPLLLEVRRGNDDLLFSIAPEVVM

T6: LIN7B, Q9HAP6
T6 sequence (Q9HAP6 88-185, limits assumed, looked up): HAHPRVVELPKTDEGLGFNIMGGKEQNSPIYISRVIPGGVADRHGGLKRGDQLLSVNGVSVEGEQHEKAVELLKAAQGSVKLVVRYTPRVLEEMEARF

T7: NHERF3_3, Q5T2W1
T7 sequence (Q5T2W1 238-333, limits assumed, looked up): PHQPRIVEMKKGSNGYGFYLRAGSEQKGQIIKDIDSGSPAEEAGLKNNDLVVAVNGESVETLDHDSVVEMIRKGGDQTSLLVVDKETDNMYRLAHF

T8: RHPN1, Q8TCX5
T8 sequence (Q8TCX5 508-602, limits assumed, looked up): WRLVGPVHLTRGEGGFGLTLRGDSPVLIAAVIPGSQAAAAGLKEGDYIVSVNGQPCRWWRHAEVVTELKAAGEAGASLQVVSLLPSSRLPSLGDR

T9: SNTA1, Q13424
T9 sequence (Q13424 82-180, limits assumed, looked up): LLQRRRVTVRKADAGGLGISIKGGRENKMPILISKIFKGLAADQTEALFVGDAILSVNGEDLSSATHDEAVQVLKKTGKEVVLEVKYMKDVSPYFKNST


target: T1, APBA1_1, Q02410; test: holdup assay; design: key: below the threshold = too weak to quantify, mostly under pKd 3.1 to 4; conditions: plain residues with an end cap or a label only (N-terminal biotin on a linker: ado-ado)

| Binder | pKd |
| --- | --- |
| CLREWCDAFL [BANF1, O75531] | 3.72 |
| RRISSLESEV [GRIN2C, Q14957] | below the threshold |

target: T2, ARHGEF11, O15085; test: holdup assay; design: key: below the threshold = too weak to quantify, mostly under pKd 3.1 to 4; conditions: plain residues with an end cap or a label only (N-terminal biotin on a linker: ado-ado)

| Binder | pKd |
| --- | --- |
| CLREWCDAFL [BANF1, O75531] | 3.49 |
| RRISSLESEV [GRIN2C, Q14957] | 3.98 |

target: T3, DLG3_2, Q92796; test: holdup assay; design: key: below the threshold = too weak to quantify, mostly under pKd 3.1 to 4; conditions: plain residues with an end cap or a label only (N-terminal biotin on a linker: ado-ado)

| Binder | pKd |
| --- | --- |
| CLREWCDAFL [BANF1, O75531] | 4.15 |
| RRISSLESEV [GRIN2C, Q14957] | 5.27 |

target: DLG4_2, P78352; test: holdup assay; design: key: below the threshold = too weak to quantify, mostly under pKd 3.1 to 4; conditions: plain residues with an end cap or a label only (N-terminal biotin on a linker: ado-ado)
Sequence (P78352 155-259): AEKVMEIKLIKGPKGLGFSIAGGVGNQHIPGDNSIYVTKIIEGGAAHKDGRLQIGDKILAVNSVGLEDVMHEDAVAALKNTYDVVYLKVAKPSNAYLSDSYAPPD

| Binder | pKd |
| --- | --- |
| CLREWCDAFL [BANF1, O75531] | below the threshold |
| RRISSLESEV [GRIN2C, Q14957] | 5.33 |

target: T4, FRMPD1, Q5SYB0; test: holdup assay; design: key: below the threshold = too weak to quantify, mostly under pKd 3.1 to 4; conditions: plain residues with an end cap or a label only (N-terminal biotin on a linker: ado-ado)

| Binder | pKd |
| --- | --- |
| CLREWCDAFL [BANF1, O75531] | below the threshold |
| RRISSLESEV [GRIN2C, Q14957] | below the threshold |

target: FRMPD2_1, Q68DX3; test: holdup assay; design: key: below the threshold = too weak to quantify, mostly under pKd 3.1 to 4; conditions: plain residues with an end cap or a label only (N-terminal biotin on a linker: ado-ado)
Sequence (Q68DX3 770-861): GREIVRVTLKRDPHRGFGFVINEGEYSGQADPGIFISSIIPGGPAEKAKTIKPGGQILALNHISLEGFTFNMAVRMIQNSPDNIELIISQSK

| Binder | pKd |
| --- | --- |
| CLREWCDAFL [BANF1, O75531] | below the threshold |
| RRISSLESEV [GRIN2C, Q14957] | below the threshold |

target: FRMPD2_3, Q68DX3; test: holdup assay; design: key: below the threshold = too weak to quantify, mostly under pKd 3.1 to 4; conditions: plain residues with an end cap or a label only (N-terminal biotin on a linker: ado-ado)
Sequence (Q68DX3 1073-1166): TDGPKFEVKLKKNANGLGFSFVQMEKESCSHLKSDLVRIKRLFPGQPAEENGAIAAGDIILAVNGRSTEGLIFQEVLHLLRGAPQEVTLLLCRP

| Binder | pKd |
| --- | --- |
| CLREWCDAFL [BANF1, O75531] | below the threshold |
| RRISSLESEV [GRIN2C, Q14957] | below the threshold |

target: GIPC2, Q8TF65; test: holdup assay; design: key: below the threshold = too weak to quantify, mostly under pKd 3.1 to 4; conditions: plain residues with an end cap or a label only (N-terminal biotin on a linker: ado-ado)
Sequence (Q8TF65 112-203): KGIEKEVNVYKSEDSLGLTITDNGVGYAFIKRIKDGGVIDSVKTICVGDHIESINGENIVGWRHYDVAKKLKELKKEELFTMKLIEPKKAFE

| Binder | pKd |
| --- | --- |
| CLREWCDAFL [BANF1, O75531] | below the threshold |
| RRISSLESEV [GRIN2C, Q14957] | 3.65 |

target: GOPC, Q9HD26; test: holdup assay; design: key: below the threshold = too weak to quantify, mostly under pKd 3.1 to 4; conditions: plain residues with an end cap or a label only (N-terminal biotin on a linker: ado-ado)

| Binder | pKd |
| --- | --- |
| CLREWCDAFL [BANF1, O75531] | below the threshold |
| RRISSLESEV [GRIN2C, Q14957] | below the threshold |

target: GORASP1, Q9BQQ3; test: holdup assay; design: key: below the threshold = too weak to quantify, mostly under pKd 3.1 to 4; conditions: plain residues with an end cap or a label only (N-terminal biotin on a linker: ado-ado)
Sequence (Q9BQQ3 1-208): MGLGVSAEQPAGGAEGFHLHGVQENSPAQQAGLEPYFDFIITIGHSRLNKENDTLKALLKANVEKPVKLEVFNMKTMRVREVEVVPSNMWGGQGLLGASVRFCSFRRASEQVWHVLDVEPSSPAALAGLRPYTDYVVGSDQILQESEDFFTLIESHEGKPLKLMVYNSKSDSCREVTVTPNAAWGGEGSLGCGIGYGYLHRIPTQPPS

| Binder | pKd |
| --- | --- |
| CLREWCDAFL [BANF1, O75531] | 3.82 |
| RRISSLESEV [GRIN2C, Q14957] | below the threshold |

target: T5, HTRA3, P83110; test: holdup assay; design: key: below the threshold = too weak to quantify, mostly under pKd 3.1 to 4; conditions: plain residues with an end cap or a label only (N-terminal biotin on a linker: ado-ado)

| Binder | pKd |
| --- | --- |
| CLREWCDAFL [BANF1, O75531] | 4.17 |
| RRISSLESEV [GRIN2C, Q14957] | below the threshold |

target: Inadl_1, Q8NI35; test: holdup assay; design: key: below the threshold = too weak to quantify, mostly under pKd 3.1 to 4; conditions: plain residues with an end cap or a label only (N-terminal biotin on a linker: ado-ado)
Sequence (Q8NI35 113-229): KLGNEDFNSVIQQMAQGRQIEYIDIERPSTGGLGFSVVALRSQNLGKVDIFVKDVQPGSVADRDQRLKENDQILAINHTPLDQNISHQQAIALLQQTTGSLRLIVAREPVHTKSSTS

| Binder | pKd |
| --- | --- |
| CLREWCDAFL [BANF1, O75531] | below the threshold |
| RRISSLESEV [GRIN2C, Q14957] | below the threshold |

target: Inadl_10, Q8NI35; test: holdup assay; design: key: below the threshold = too weak to quantify, mostly under pKd 3.1 to 4; conditions: plain residues with an end cap or a label only (N-terminal biotin on a linker: ado-ado)
Sequence (Q8NI35 1673-1763): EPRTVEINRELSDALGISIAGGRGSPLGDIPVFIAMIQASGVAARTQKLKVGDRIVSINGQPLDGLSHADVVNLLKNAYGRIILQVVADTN

| Binder | pKd |
| --- | --- |
| CLREWCDAFL [BANF1, O75531] | below the threshold |
| RRISSLESEV [GRIN2C, Q14957] | below the threshold |

target: Inadl_4, Q8NI35; test: holdup assay; design: key: below the threshold = too weak to quantify, mostly under pKd 3.1 to 4; conditions: plain residues with an end cap or a label only (N-terminal biotin on a linker: ado-ado)
Sequence (Q8NI35 547-651): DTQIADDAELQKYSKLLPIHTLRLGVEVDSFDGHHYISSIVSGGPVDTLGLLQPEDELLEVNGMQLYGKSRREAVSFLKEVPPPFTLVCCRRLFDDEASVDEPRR

| Binder | pKd |
| --- | --- |
| CLREWCDAFL [BANF1, O75531] | below the threshold |
| RRISSLESEV [GRIN2C, Q14957] | below the threshold |

target: Inadl_6, Q8NI35; test: holdup assay; design: key: below the threshold = too weak to quantify, mostly under pKd 3.1 to 4; conditions: plain residues with an end cap or a label only (N-terminal biotin on a linker: ado-ado)
Sequence (Q8NI35 1058-1167): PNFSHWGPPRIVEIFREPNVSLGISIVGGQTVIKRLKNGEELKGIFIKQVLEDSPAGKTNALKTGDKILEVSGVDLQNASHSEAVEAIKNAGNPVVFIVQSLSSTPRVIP

| Binder | pKd |
| --- | --- |
| CLREWCDAFL [BANF1, O75531] | 4.32 |
| RRISSLESEV [GRIN2C, Q14957] | below the threshold |

target: Inadl_8, Q8NI35; test: holdup assay; design: key: below the threshold = too weak to quantify, mostly under pKd 3.1 to 4; conditions: plain residues with an end cap or a label only (N-terminal biotin on a linker: ado-ado)
Sequence (Q8NI35 1425-1530): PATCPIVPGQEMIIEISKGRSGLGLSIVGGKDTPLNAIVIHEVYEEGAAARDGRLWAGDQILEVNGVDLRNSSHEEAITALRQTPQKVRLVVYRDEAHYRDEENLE

| Binder | pKd |
| --- | --- |
| CLREWCDAFL [BANF1, O75531] | below the threshold |
| RRISSLESEV [GRIN2C, Q14957] | 3.58 |

target: T6, LIN7B, Q9HAP6; test: holdup assay; design: key: below the threshold = too weak to quantify, mostly under pKd 3.1 to 4; conditions: plain residues with an end cap or a label only (N-terminal biotin on a linker: ado-ado)

| Binder | pKd |
| --- | --- |
| CLREWCDAFL [BANF1, O75531] | 3.94 |
| RRISSLESEV [GRIN2C, Q14957] | 4.12 |

target: LNX1_2, Q8TBB1; test: holdup assay; design: key: below the threshold = too weak to quantify, mostly under pKd 3.1 to 4; conditions: plain residues with an end cap or a label only (N-terminal biotin on a linker: ado-ado)
Sequence (Q8TBB1 371-470): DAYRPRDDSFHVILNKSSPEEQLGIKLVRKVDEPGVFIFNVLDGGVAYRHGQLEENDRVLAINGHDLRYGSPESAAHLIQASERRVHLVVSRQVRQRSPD

| Binder | pKd |
| --- | --- |
| CLREWCDAFL [BANF1, O75531] | below the threshold |
| RRISSLESEV [GRIN2C, Q14957] | below the threshold |

target: LNX1_3, Q8TBB1; test: holdup assay; design: key: below the threshold = too weak to quantify, mostly under pKd 3.1 to 4; conditions: plain residues with an end cap or a label only (N-terminal biotin on a linker: ado-ado)
Sequence (Q8TBB1 500-596): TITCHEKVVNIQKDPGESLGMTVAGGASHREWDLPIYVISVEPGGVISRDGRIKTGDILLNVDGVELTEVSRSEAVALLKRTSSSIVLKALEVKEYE

| Binder | pKd |
| --- | --- |
| CLREWCDAFL [BANF1, O75531] | below the threshold |
| RRISSLESEV [GRIN2C, Q14957] | below the threshold |

target: MAGI1_2, Q96QZ7; test: holdup assay; design: key: below the threshold = too weak to quantify, mostly under pKd 3.1 to 4; conditions: plain residues with an end cap or a label only (N-terminal biotin on a linker: ado-ado)
Sequence (Q96QZ7 456-580): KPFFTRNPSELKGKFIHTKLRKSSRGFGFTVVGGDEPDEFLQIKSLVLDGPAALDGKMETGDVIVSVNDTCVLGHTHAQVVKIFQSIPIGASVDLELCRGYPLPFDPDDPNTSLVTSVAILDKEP

| Binder | pKd |
| --- | --- |
| CLREWCDAFL [BANF1, O75531] | below the threshold |
| RRISSLESEV [GRIN2C, Q14957] | 4.05 |

target: MAGI2_3, Q86UL8; test: holdup assay; design: key: below the threshold = too weak to quantify, mostly under pKd 3.1 to 4; conditions: plain residues with an end cap or a label only (N-terminal biotin on a linker: ado-ado)
Sequence (Q86UL8 600-682): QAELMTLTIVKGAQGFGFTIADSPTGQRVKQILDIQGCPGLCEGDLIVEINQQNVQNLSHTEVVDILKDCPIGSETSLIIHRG

| Binder | pKd |
| --- | --- |
| CLREWCDAFL [BANF1, O75531] | below the threshold |
| RRISSLESEV [GRIN2C, Q14957] | 4.11 |

target: MAGI3_2, Q5TCQ9; test: holdup assay; design: key: below the threshold = too weak to quantify, mostly under pKd 3.1 to 4; conditions: plain residues with an end cap or a label only (N-terminal biotin on a linker: ado-ado)
Sequence (Q5TCQ9 398-503): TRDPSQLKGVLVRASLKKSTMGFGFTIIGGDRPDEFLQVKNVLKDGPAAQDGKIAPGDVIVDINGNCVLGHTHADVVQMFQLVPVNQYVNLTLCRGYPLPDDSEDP

| Binder | pKd |
| --- | --- |
| CLREWCDAFL [BANF1, O75531] | below the threshold |
| RRISSLESEV [GRIN2C, Q14957] | 4.96 |

target: MAST2, Q6P0Q8; test: holdup assay; design: key: below the threshold = too weak to quantify, mostly under pKd 3.1 to 4; conditions: plain residues with an end cap or a label only (N-terminal biotin on a linker: ado-ado)
Sequence (Q6P0Q8 1099-1202): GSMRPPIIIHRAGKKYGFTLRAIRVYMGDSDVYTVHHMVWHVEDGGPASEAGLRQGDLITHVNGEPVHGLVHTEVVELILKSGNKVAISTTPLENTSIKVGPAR

| Binder | pKd |
| --- | --- |
| CLREWCDAFL [BANF1, O75531] | 5.52 |
| RRISSLESEV [GRIN2C, Q14957] | 5.07 |

target: T7, NHERF3_3, Q5T2W1; test: holdup assay; design: key: below the threshold = too weak to quantify, mostly under pKd 3.1 to 4; conditions: plain residues with an end cap or a label only (N-terminal biotin on a linker: ado-ado)

| Binder | pKd |
| --- | --- |
| CLREWCDAFL [BANF1, O75531] | below the threshold |
| RRISSLESEV [GRIN2C, Q14957] | below the threshold |

target: NHERF4_4, Q86UT5; test: holdup assay; design: key: below the threshold = too weak to quantify, mostly under pKd 3.1 to 4; conditions: plain residues with an end cap or a label only (N-terminal biotin on a linker: ado-ado)
Sequence (Q86UT5 464-550): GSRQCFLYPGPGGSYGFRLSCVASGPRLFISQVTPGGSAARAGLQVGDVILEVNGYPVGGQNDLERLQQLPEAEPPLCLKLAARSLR

| Binder | pKd |
| --- | --- |
| CLREWCDAFL [BANF1, O75531] | 3.6 |
| RRISSLESEV [GRIN2C, Q14957] | below the threshold |

target: PARD3_3, Q8TEW0; test: holdup assay; design: key: below the threshold = too weak to quantify, mostly under pKd 3.1 to 4; conditions: plain residues with an end cap or a label only (N-terminal biotin on a linker: ado-ado)
Sequence (Q8TEW0 582-685): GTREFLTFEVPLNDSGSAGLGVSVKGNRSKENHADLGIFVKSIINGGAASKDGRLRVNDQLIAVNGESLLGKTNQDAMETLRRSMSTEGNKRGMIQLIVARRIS

| Binder | pKd |
| --- | --- |
| CLREWCDAFL [BANF1, O75531] | 4.43 |
| RRISSLESEV [GRIN2C, Q14957] | below the threshold |

target: T8, RHPN1, Q8TCX5; test: holdup assay; design: key: below the threshold = too weak to quantify, mostly under pKd 3.1 to 4; conditions: plain residues with an end cap or a label only (N-terminal biotin on a linker: ado-ado)

| Binder | pKd |
| --- | --- |
| CLREWCDAFL [BANF1, O75531] | below the threshold |
| RRISSLESEV [GRIN2C, Q14957] | 4.66 |

target: T9, SNTA1, Q13424; test: holdup assay; design: key: below the threshold = too weak to quantify, mostly under pKd 3.1 to 4; conditions: plain residues with an end cap or a label only (N-terminal biotin on a linker: ado-ado)

| Binder | pKd |
| --- | --- |
| CLREWCDAFL [BANF1, O75531] | below the threshold |
| RRISSLESEV [GRIN2C, Q14957] | 4.53 |
